Test results published in the RNAGym collection of RNA variant scans (doi:10.1073/pnas.2313332121).

B1: TPR t1 (parent)
chain: GACCAAUCUGCCCUCAGAGCUCGAGAACAUCUUCGGAUGCAGAGGAGGCAGGCUUCGGUGGCGCGAUAGCGCCAACGUCCUCAACCUCCAAUGCAUCCCACCACAUGAUGAUGCCUGAAGAGCCUUGGUUUUUUG

Variants of: B1
Assay: polymerase ribozyme fitness, log enrichment relative to wild type (log ratio); higher = more active; in vitro selection for triplet polymerase activity
Method in brief: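 Fitness measures genotype enrichment against wild-type enrichment on a logarithmic scale, with inverse-variance-weighted averaging of replicates. The logarithm is base 2, and genotypes were kept only with ≥10 input reads and ≥1 read per output in Illumina sequencing. The sequenced libraries came from one triplicate in vitro selection round, including frozen incubation at −7 °C, of PCR-built, transcribed mutant libraries of each subunit of a heterodimeric triplet polymerase ribozyme.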

| Variant | polymerase ribozyme fitness (log ratio) |
| --- | --- |
| C8U G71A | -0.229 |
| U9C A83C | 0.121 |
| U9A A16U G63U U132A | -1 |
| U9A G42A G57U C115A G127U U131A | -3.74 |
| G10C A46G C124U | -0.222 |
| G10A U109A U133G | -7.59 |
| G10A G71A A83C U106A A108U | -1.78 |
| U9A G52A C104U G110C | -3.92 |
| U9G C12A G57U A111U C114A U133A | -5.59 |
| U9G A27C C98U | -4.04 |
| U9A C13G U32A G39C A41U G60C C88U G117A | -7.75 |
| G10A C20G A41C G48A G69U A84G | -3.37 |
| U9C C53U G69C | -0.176 |
| U9A G51A G52A C70G C82U G120C | -5.71 |
| U9G C15A C97U A108G G120A | -1.87 |
| U9A U78A | -0.206 |
| G10A G44U U54C G63A C70A U130C | -4.01 |
| U9G A95C U130A | -0.961 |
| G10A G47C C89U C124G | -0.208 |
| U9G G51C | -3.27 |
| U9G C40G C94U C123A U125A | -0.873 |

| Variant | polymerase ribozyme fitness (log ratio) |
| --- | --- |
| U9A C13U U92A C101A | -4.36 |
| G10A A68G U112C | -1.25 |
| G10A C97U C101U A105G U130G | -5.15 |
| U9C C64A A74U U112G | -6.76 |
| G10A U109A | -5.39 |
| U9C A37C C94U G110A | -1.17 |
| G10A A41C G52A | -1.27 |
| G10A G44U | -1.5 |
| U9G A41U U81C U96A | -2.65 |
| U9G C53A A95C U112G | -0.929 |
| G10A A16C A50G C101A | -2.99 |
| U9A G110C U130A | -4.06 |
| U9G C20A C22U C86U | -4.49 |
| U9C G48U G52C G117U | -2.68 |
| G10A C53G G69U C88U G110U | -0.0648 |
| U9G G63C C72A | -3.45 |
| U9A C80U C101U A111U U116A | -4.4 |
| U9G C102U G135U | -2.17 |
| U9C C15A G44U G60C A91U | -1.82 |
| U9C G19A U96A A121G U132A | -1.11 |
| U9G C11U C53U U81A | -0.54 |

| Variant | polymerase ribozyme fitness (log ratio) |
| --- | --- |
| U9G C13U C73U A119G | 1.11 |
| U9A A26U C40G G58C U125G | -4.12 |
| U9G G60A A90C | -0.347 |
| U9G C20A | -2.5 |
| C8U G117U U126C | -3.25 |
| U9A A50G C88G A108U | -4.75 |
| U9C C15G A43U | -1.5 |
| U9G C13U C49G C82U | -0.776 |
| U9G C72G U87G | -0.102 |
| G10C A46C C101A C123G U130A | -1.67 |
| U9C C13U G48A A74C U81G C101U U126C | -2.71 |
| C8U U9G A37G G117C | -0.0473 |
| U9G G117A | 0.595 |
| C8U U9A C11A C13A G44U C73A A100U C102U | -4.18 |
| C8U U9A A18U C76G | -1.89 |
| U9G C72G G113A G120A | -1.17 |
| U9A A27U C28A U78C U96A U106A G117A | -4.8 |
| U9A A29U A41U G60A U78C G93U A119G | -2.57 |
| U9G U14A C31U G69U G117A G127C | -4.64 |
| C8U U32G C101A C115G | -5.52 |
| U9A G45U C73U C98U | -0.532 |

| Variant | polymerase ribozyme fitness (log ratio) |
| --- | --- |
| U9A G10C C13U C40A C80A G122A | -3.43 |
| U9G C20U G51U C94U | -4.89 |
| U9A A16C C49U A66G C101G C123A | -4.86 |
| G10A C73U U78A C79U C94A | -0.0725 |
| U9A C11U A100U | -0.0164 |
| G10A C98U C115A | -2.67 |
| U9A C11A C70U C85U | -1.15 |
| G10A C40A A111C | -1.11 |
| U9A C13G C20A A43G A95G | -4.1 |
| G10A G63A | -0.758 |
| U9C C40U U112G | 0.239 |
| G10A C49A G93U U112G | -1.97 |
| U9G C11G G45C | -5.66 |
| G10A U96A | -0.657 |
| G10A C53G G61A A95G | -0.503 |
| U9A C89G A90U | -0.63 |
| G10A A18C G122A C123G | -0.417 |
| U9A U87A | 1.16 |
| G10A C13U U14A G61U C104G | -6.29 |
| C8U U9G U59C C72U | 0.524 |
